Test results published in publication PMC4144780, “MSRB7 reverses oxidation of GSTF2/3 to confer tolerance of Arabidopsis thaliana to oxidative stress” (Journal of Experimental Botany, 2014).

Experiments:
oxidized His–GSTF2 = molecular target: T1, oxidized His–GSTF2 (A. thaliana, UniProt P46422 1-212, oxidized (positions not stated for this sample)); assay: co-IP; recombinant His–flag–MSRB7 and oxidized His–GSTs incubated with rabbit anti-flag antibody in IP buffer (15 mM HEPES pH 7.4, 1 mM EDTA, 1 mM DTT, 10 mM MgCl2, 30 mM KCl) 1 h at room temperature; Protein G–Sepharose; blot with mouse anti-His antibody; settings: both partners purified
T1 construct: Glutathione S-transferase F2 (GSTF2), A. thaliana, locus At4g02520; cloned into pET-53-DEST; How it was oxidized is told only for the activity assay (0.5 mM HOCl, 40 min, stopped with 5 mM Met); also called recombinant GSTF2; MetO–GSTF2
T1 sequence (looked up): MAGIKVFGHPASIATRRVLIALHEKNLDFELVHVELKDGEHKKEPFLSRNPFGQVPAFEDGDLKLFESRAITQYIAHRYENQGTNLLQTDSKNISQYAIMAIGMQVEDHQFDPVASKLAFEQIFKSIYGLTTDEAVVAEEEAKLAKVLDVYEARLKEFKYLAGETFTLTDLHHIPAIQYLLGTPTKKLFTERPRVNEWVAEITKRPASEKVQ

oxidized His–GSTF3 = molecular target: T2, oxidized His–GSTF3 (A. thaliana, UniProt Q9SLM6 1-212, oxidized (positions not stated for this sample)); assay: as above; settings: both partners purified
T2 construct: Glutathione S-transferase F3 (GSTF3), A. thaliana, locus At2g02930; cloned into pET-53-DEST; How it was oxidized is told only for the activity assay (0.5 mM HOCl, 40 min, stopped with 5 mM Met); also called recombinant GSTF3; MetO–GSTF3
T2 sequence (looked up): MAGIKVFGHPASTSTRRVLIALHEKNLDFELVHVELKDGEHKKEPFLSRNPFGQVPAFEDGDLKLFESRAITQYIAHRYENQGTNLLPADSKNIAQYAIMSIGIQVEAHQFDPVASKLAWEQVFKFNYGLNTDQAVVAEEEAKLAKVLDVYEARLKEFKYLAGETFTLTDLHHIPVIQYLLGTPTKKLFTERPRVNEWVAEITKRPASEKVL

binding result (oxidized His–GSTF2): binds
binding result (oxidized His–GSTF3): binds
B1: His–flag–MSRB7 (enzyme, A. thaliana, UniProt Q8VY86 1-144, looked up)
chain: MAAMTAAAVPATGSFQKQDEEWRAVLSPEQFRVLRLKGTDKRGKGEFTKKFEEGTYSCAGCGTALYKSTTKFDSGCGWPAFFDAIPGAIKQTPEAGGRRMEITCAVCDGHLGHVFKGEGYSTPTDQRHCVNSVSLKFSSAGSSQ
notes: Methionine sulfoxide reductase B7 (MSRB7), A. thaliana, locus At4g21830; N terminus fused with a flag tag, cloned into pET-53-DEST; also called recombinant MSRB7; not shown: flag, N-terminal, kept
